These results are taken from PMC5159831.

For assay [1], the target named is recombinant TACE catalytic domain.
In the next assay the target is T1, MMP7 catalytic domain.
T1 sequence (P09237 whole entry, species assumed, looked up): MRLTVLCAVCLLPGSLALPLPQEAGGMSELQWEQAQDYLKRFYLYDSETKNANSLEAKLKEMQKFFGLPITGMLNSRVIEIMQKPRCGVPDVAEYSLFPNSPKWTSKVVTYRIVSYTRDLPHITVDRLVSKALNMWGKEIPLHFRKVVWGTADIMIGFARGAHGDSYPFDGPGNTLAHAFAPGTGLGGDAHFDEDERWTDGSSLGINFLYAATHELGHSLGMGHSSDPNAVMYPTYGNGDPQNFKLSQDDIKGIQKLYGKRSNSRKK

Chain of recombinant TACE catalytic domain (P78536 215-671): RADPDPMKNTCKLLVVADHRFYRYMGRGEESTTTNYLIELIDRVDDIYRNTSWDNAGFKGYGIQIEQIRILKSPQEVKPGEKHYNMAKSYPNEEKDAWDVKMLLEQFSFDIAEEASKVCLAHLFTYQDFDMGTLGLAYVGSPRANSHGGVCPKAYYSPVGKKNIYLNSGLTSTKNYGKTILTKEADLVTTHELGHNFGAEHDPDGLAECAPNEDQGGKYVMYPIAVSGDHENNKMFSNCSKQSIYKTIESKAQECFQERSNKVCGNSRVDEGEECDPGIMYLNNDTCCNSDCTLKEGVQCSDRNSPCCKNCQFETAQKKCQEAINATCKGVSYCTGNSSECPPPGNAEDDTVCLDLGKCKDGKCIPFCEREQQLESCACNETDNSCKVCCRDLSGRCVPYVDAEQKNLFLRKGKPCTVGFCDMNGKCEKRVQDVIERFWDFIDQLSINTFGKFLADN
Chain of MMP9 catalytic domain (P14780 20-707): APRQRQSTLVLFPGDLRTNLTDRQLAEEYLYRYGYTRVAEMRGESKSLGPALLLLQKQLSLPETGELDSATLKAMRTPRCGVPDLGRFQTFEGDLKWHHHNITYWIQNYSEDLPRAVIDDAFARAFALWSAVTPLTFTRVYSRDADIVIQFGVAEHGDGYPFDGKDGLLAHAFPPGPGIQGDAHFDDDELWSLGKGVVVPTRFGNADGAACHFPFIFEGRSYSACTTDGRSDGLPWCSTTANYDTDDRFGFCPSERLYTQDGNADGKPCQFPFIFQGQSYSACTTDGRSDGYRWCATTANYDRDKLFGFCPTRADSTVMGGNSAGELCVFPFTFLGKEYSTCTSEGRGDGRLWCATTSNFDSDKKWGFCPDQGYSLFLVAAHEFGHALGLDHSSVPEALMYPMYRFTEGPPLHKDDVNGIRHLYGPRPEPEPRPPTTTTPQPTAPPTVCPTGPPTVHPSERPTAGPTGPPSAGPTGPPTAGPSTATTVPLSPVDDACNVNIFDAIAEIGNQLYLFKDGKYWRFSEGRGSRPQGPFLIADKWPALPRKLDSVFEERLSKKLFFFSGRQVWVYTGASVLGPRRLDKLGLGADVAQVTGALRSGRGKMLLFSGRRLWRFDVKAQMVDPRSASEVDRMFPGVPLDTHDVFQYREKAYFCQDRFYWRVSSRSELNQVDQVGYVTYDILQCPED

In the case of “TACE prodomain (TPD) R58A (from UniProt P78536 23-214) (domain or fragment)”, the IC50 of inhibition of the enzyme's hydrolysis of a fluorogenic peptide (10 nM MMP9, Mca-PLGL-Dpa-AR 10 μM, 37 °C) in the assay with MMP9 catalytic domain worked out at 4.34 µM. In the assay with MT1-MMP catalytic domain, this substance returned an IC50 of inhibition of the enzyme's hydrolysis of a fluorogenic peptide (10 nM MT1-MMP, Mca-PLGL-Dpa-AR 10 μM, 37 °C) of 4.65 µM. Besides, the IC50 of inhibition of the enzyme's hydrolysis of a fluorogenic peptide (10 nM TACE, 37 °C) in assay [1] came out at 0.307 µM.
Consider “TACE prodomain double mutant R58A/C184A (TPD-DM) (from UniProt P78536 23-214) (domain or fragment)”, for which the IC50 of inhibition of the enzyme's hydrolysis of a fluorogenic peptide (10 nM TACE, 37 °C) in assay [1] stood at 0.018 µM. This substance returned an IC50 of inhibition of the enzyme's hydrolysis of a fluorogenic peptide (10 nM MMP7, Mca-PLGL-Dpa-AR 10 μM, 37 °C) with MMP7 catalytic domain of 5.44 µM.
